In publication PMC3001329 (Investigative ophthalmology & visual science, 2009):

Biological target: the molecule itself
Assay: SEC-MALS

B1: recombinant bovine αA-crystallin Y118D mutant (natural protein)
chain: MDIAIQHPWFKRTLGPFYPSRLFDQFFGEGLFEYDLLPFLSSTISPYYRQSLFRTVLDSGISEVRSDRDKFVIFLDVKHFSPEDLTVKVQEDFVEIHGKHNERQDDHGYISREFHRRDRLPSNVDQSALSCSLSADGMLTFSGPKIPSGVDAGHSERAIPVSREEKPSSAPSS
  stoichiometry N: 75 subunits
